{"source": "patent US20180177842A1", "about": "(CANIMGUIDE THERAPEUTICS, published 2018)"}
{"target": "T1, P3028 (VFDEFKPLVEEPQNLIK, SEQ ID NO: 185), His-tagged (human)", "T1 construct": "Synthetic fragment of human serum albumin (positions 397-413); used in solution as His-tagged peptide PGE73; also called PGE73; not shown: His-tag", "T1 peptide": "VFDEFKPLVEEPQNLIK", "experiment": "PEPSCAN ELISA; peptide on chip, His-P3028 added;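 note: peroxidase color development with ABTS and H2O2 substrate, OD405 imaged by CCD camera with image processing and taken as raw values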", "units": {"RAMPO Score": "rampo units"}}
{"binder": "KKLDTFFVKMSLFTER", "note": "[KKLDTFFVKMSLFTER (SEQ ID NO: 336)]", "RAMPO Score": 460}
{"binder": "KKLDTFSVKLSLFTER", "note": "[KKLDTFSVKLSLFTER (SEQ ID NO: 323)]", "RAMPO Score": 700}
{"binder": "KKLDTWFVKLSLFTER", "note": "[KKLDTWFVKLSLFTER (SEQ ID NO: 444)]", "RAMPO Score": 348}
{"binder": "KKLDTNFVKLSLFTER", "note": "[KKLDTNFVKLSLFTER (SEQ ID NO: 316)]", "RAMPO Score": 446}
{"binder": "KKLDTHFVKLSLFTER", "note": "[KKLDTHFVKLSLFTER (SEQ ID NO: 466)]", "RAMPO Score": 332}
{"binder": "KKLDTFFVKTSLFTER", "note": "[KKLDTFFVKTSLFTER (SEQ ID NO: 342)]", "RAMPO Score": 399}
{"binder": "KKLDTFFVRLSLFTER", "note": "[KKLDTFFVRLSLFTER (SEQ ID NO: 331)]", "RAMPO Score": 374}
{"binder": "KKLDTFIVKLSLFTER", "note": "[KKLDTFIVKLSLFTER (SEQ ID NO: 397)]", "RAMPO Score": 446}
{"binder": "KKLDTKFVKLSLFTER", "note": "[KKLDTKFVKLSLFTER (SEQ ID NO: 460)]", "RAMPO Score": 337}
{"binder": "KKLDTGFVKLSLFTER", "note": "[KKLDTGFVKLSLFTER (SEQ ID NO: 446)]", "RAMPO Score": 347}
{"binder": "KKLDTFFVWLSLFTER", "note": "[KKLDTFFVWLSLFTER (SEQ ID NO: 526)]", "RAMPO Score": 245}
{"binder": "KKLDTFGVKLSLFTER", "note": "[KKLDTFGVKLSLFTER (SEQ ID NO: 96)]", "RAMPO Score": 347}
{"binder": "KKLDTFLVKLSLFTER", "note": "[KKLDTFLVKLSLFTER (SEQ ID NO: 320)]", "RAMPO Score": 517}
{"binder": "KKLDTFFVKNSLFTER", "note": "[KKLDTFFVKNSLFTER (SEQ ID NO: 337)]", "RAMPO Score": 365}
{"binder": "KKLDTLFVKLSLFTER", "note": "[KKLDTLFVKLSLFTER (SEQ ID NO: 411)]", "RAMPO Score": 408}
{"binder": "KKLDTFVVKLSLFTER", "note": "[KKLDTFVVKLSLFTER (SEQ ID NO: 325)]", "RAMPO Score": 527}
{"binder": "KKLDTVFVKLSLFTER", "note": "[KKLDTVFVKLSLFTER (SEQ ID NO: 319)]", "RAMPO Score": 547}
{"binder": "KKLDTFTVKLSLFTER", "note": "[KKLDTFTVKLSLFTER (SEQ ID NO: 324)]", "RAMPO Score": 517}
{"binder": "KKLDTFFVMLSLFTER", "note": "[KKLDTFFVMLSLFTER (SEQ ID NO: 509)]", "RAMPO Score": 283}
{"binder": "KKLDTFFVKPSLFTER", "note": "[KKLDTFFVKPSLFTER (SEQ ID NO: 338)]", "RAMPO Score": 436}
{"binder": "KKLDTFFVKYSLFTER", "note": "[KKLDTFFVKYSLFTER (SEQ ID NO: 344)]", "RAMPO Score": 382}
{"binder": "KKLFTFFVKLSLFTER", "note": "[KKLFTFFVKLSLFTER (SEQ ID NO: 426)]", "RAMPO Score": 380}
{"binder": "KKLDTFFVSLSLFTER", "note": "[KKLDTFFVSLSLFTER (SEQ ID NO: 511)]", "RAMPO Score": 274}
{"binder": "KKLDTFWVKLSLFTER", "note": "[KKLDTFWVKLSLFTER (SEQ ID NO: 425)]", "RAMPO Score": 380}
{"binder": "KKLDWFFVKLSLFTER", "note": "[KKLDWFFVKLSLFTER (SEQ ID NO: 311)]", "RAMPO Score": 418}
{"binder": "KKLDTFFVKSSLFTER", "note": "[KKLDTFFVKSSLFTER (SEQ ID NO: 341)]", "RAMPO Score": 351}
{"binder": "KKLDTFYVKLSLFTER", "note": "[KKLDTFYVKLSLFTER (SEQ ID NO: 463)]", "RAMPO Score": 334}
{"binder": "KKLDTPFVKLSLFTER", "note": "[KKLDTPFVKLSLFTER (SEQ ID NO: 317)]", "RAMPO Score": 497}
{"binder": "KKLDTIFVKLSLFTER", "note": "[KKLDTIFVKLSLFTER (SEQ ID NO: 314)]", "RAMPO Score": 466}
{"binder": "KKLDTFMVKLSLFTER", "note": "[KKLDTFMVKLSLFTER (SEQ ID NO: 321)]", "RAMPO Score": 712}
{"binder": "KKLDTMFVKLSLFTER", "note": "[KKLDTMFVKLSLFTER (SEQ ID NO: 315)]", "RAMPO Score": 467}
{"binder": "KKLDTFNVKLSLFTER", "note": "[KKLDTFNVKLSLFTER (SEQ ID NO: 443)]", "RAMPO Score": 348}
{"binder": "KKLDTFPVKLSLFTER", "note": "[KKLDTFPVKLSLFTER (SEQ ID NO: 437)]", "RAMPO Score": 356}
{"binder": "KKLDVFFVKLSLFTER", "note": "[KKLDVFFVKLSLFTER (SEQ ID NO: 429)]", "RAMPO Score": 374}
{"binder": "KKLDTQFVKLSLFTER", "note": "[KKLDTQFVKLSLFTER (SEQ ID NO: 410)]", "RAMPO Score": 410}
{"binder": "KKLDTFFVKWSLFTER", "note": "[KKLDTFFVKWSLFTER (SEQ ID NO: 482)]", "RAMPO Score": 316}
{"binder": "KKLDTFFVKRSLFTER", "note": "[KKLDTFFVKRSLFTER (SEQ ID NO: 340)]", "RAMPO Score": 439}
{"binder": "KKLDTSFVKLSLFTER", "note": "[KKLDTSFVKLSLFTER (SEQ ID NO: 401)]", "RAMPO Score": 432}
{"binder": "KKLDTFFVQLSLFTER", "note": "[KKLDTFFVQLSLFTER (SEQ ID NO: 469)]", "RAMPO Score": 330}
{"binder": "KKLDTFRVKLSLFTER", "note": "[KKLDTFRVKLSLFTER (SEQ ID NO: 432)]", "RAMPO Score": 369}
{"binder": "KKLETFFVKLSLFTER", "note": "[KKLETFFVKLSLFTER (SEQ ID NO: 299)]", "RAMPO Score": 417}
{"binder": "KKLDTYFVKLSLFTER", "note": "[KKLDTYFVKLSLFTER (SEQ ID NO: 434)]", "RAMPO Score": 364}
{"binder": "KKLDTFFVKQSLFTER", "note": "[KKLDTFFVKQSLFTER (SEQ ID NO: 339)]", "RAMPO Score": 470}
{"binder": "KKLDTFFVNLSLFTER (also called 31136)", "note": "[KKLDTFFVNLSLFTER (SEQ ID NO: 518)]", "RAMPO Score": 256}
{"binder": "KKLDTFHVKLSLFTER", "note": "[KKLDTFHVKLSLFTER (SEQ ID NO: 433)]", "RAMPO Score": 364}
{"binder": "KKLDYFFVKLSLFTER", "note": "[KKLDYFFVKLSLFTER (SEQ ID NO: 312)]", "RAMPO Score": 425}
{"binder": "KKLDTFFVKVSLFTER", "note": "[KKLDTFFVKVSLFTER (SEQ ID NO: 343)]", "RAMPO Score": 658}
{"binder": "KKLDTFFVVLSLFTER", "note": "[KKLDTFFVVLSLFTER (SEQ ID NO: 523)]", "RAMPO Score": 248}
{"binder": "KKLDTRFVKLSLFTER", "note": "[KKLDTRFVKLSLFTER (SEQ ID NO: 486)]", "RAMPO Score": 309}
{"binder": "KKLDTFQVKLSLFTER", "note": "[KKLDTFQVKLSLFTER (SEQ ID NO: 322)]", "RAMPO Score": 511}
{"binder": "KKLDTFFVTLSLFTER", "note": "[KKLDTFFVTLSLFTER (SEQ ID NO: 445)]", "RAMPO Score": 347}
{"binder": "KKLDTTFVKLSLFTER", "note": "[KKLDTTFVKLSLFTER (SEQ ID NO: 318)]", "RAMPO Score": 481}
